In US20120278951A1 (AGRESEARCH, published 2012):

Assays:
[1] = molecular target: the molecule itself; test: self-association (dimer) seen by SDS-PAGE/immunoblot; almost completely disrupted by SDS plus urea
[2] = molecular target: the molecule itself; test: self-association seen by SDS and SDS-UREA PAGE/immunoblot; on artificial oil bodies with GSSG also trimeric, tetrameric and likely pentameric disulfide cross-linked oligomers
[3] = molecular target: the molecule itself; test: disulfide cross-linked oligomers seen by non-reducing SDS-PAGE/immunoblot of artificial oil bodies
[4] = molecular target: the molecule itself; test: self-association / disulfide cross-linking seen by SDS and SDS-UREA PAGE/immunoblot of inclusion bodies and artificial oil bodies

B1: Oleosin disulfide 0,0 (sesame seed oleosin without engineered cysteines), E. coli expressed from pET29b (other)
chain: MKETAAAKFERQHMDSPDLGTLVPRGSMAEHYGQQQQTRAPHLQLQPRAQRVVKAATAVTAGGSLLVLSGLTLAGTVIALTIATPLLVIFSPVLVPAVITIFLLGAGFLASGGFGVAALSVLSWIYRYLTGKHPPGADQLESAKTKLASKAREMKDRAEQFSQQPVPWLISDPNSSSVDKLAAALEHHHHHHH
notes: Purified from E. coli inclusion bodies; also called Ole-0-0; Oleosin-0-0
- binding result [1]: binds

B2: Oleosin disulfide 1,1 (sesame seed oleosin with one engineered cysteine in each hydrophilic arm), E. coli expressed from pET29b (other)
chain: MKETAAAKFERQHMDSPDLGTLVPRGSMACHYGQQQQTRAPHLQLQPRAQRVVKAATAVTAGGSLLVLSGLTLAGTVIALTIATPLLVIFSPVLVPAVITIFLLGAGFLASGGFGVAALSVLSWIYRYLTGKHPPGADQLESAKTKLASKAREMKDRAEQFSCQPVPWLEHHHHHH
notes: also called Ole-1-1; Oleosin-1-1
- binding result [2]: binds

B3: Oleosin disulfide 1,3 (sesame seed oleosin with one N-terminal and three C-terminal engineered cysteines), E. coli expressed from pET29b (other)
chain: MKETAAAKFERQHMDSPDLGTLVPRGSMACHYGQQQQTRAPHLQLQPRAQRVVKAATAVTAGGSLLVLSGLTLAGTVIALTIATPLLVIFSPVLVPAVITIFLLGAGFLASGGFGVAALSVLSWIYRYLTGKHPPGADCLESAKTKLASCAREMKDRAEQFSCQPVPWLEHHHHHH
notes: also called Ole-1-3; Oleosin-1-3
- binding result [3]: binds

B4: Oleosin disulfide 3,1 (sesame seed oleosin with three N-terminal and one C-terminal engineered cysteines), E. coli expressed from pET29b (other)
chain: MKETAAAKFERQHMDSPDLGTLVPRGSMACHYGQQQQTCAPHLQLQPRACRVVKAATAVTAGGSLLVLSGLTLAGTVIALTIATPLLVIFSPVLVPAVITIFLLGAGFLASGGFGVAALSVLSWIYRYLTGKHPPGADQLESAKTKLASKAREMKDRAEQFSCQPVPWLEHHHHHH
notes: also called Ole-3-1; Oleosin-3-1
- binding result [3]: binds

B5: Oleosin disulfide 3,3 (sesame seed oleosin with three engineered cysteines in each hydrophilic arm), E. coli expressed from pET29b (other)
chain: MKETAAAKFERQHMDSPDLGTLVPRGSMACHYGQQQQTCAPHLQLQPRACRVVKAATAVTAGGSLLVLSGLTLAGTVIALTIATPLLVIFSPVLVPAVITIFLLGAGFLASGGFGVAALSVLSWIYRYLTGKHPPGADCLESAKTKLASCAREMKDRAEQFSCQPVPWLEHHHHHH
notes: also called Ole-3-3; Oleosin-3-3
- binding result [4]: binds
